Patent US20150368301

System: Unphosphorylated Nox1 peptide (KLKTQKIYF, "LocKiT")

PKC-βI (protein kinase C-βI)
in vitro kinase assay, heat of phosphorylation measured by ITC; dot blot with p-STY antibody: The slope of the reaction following the heat of dilution confirms that the Nox1 peptide is a substrate for PKC-βI
